Measured values: article PMC5068707 (PLoS Pathogens, 2016)
Where no end group is shown, it is not given here.

T1: MARV VP30 CTD (146–281) (Marburg virus (MARV), UniProt P35258 146-281)
T1 sequence: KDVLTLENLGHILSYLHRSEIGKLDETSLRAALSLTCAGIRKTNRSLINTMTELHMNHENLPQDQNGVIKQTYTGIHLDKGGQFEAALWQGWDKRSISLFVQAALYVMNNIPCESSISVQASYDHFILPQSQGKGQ

T2: EBOV NP C-terminal portion (360–739) (Ebola virus (EBOV), UniProt P18272 360-739)
T2 sequence: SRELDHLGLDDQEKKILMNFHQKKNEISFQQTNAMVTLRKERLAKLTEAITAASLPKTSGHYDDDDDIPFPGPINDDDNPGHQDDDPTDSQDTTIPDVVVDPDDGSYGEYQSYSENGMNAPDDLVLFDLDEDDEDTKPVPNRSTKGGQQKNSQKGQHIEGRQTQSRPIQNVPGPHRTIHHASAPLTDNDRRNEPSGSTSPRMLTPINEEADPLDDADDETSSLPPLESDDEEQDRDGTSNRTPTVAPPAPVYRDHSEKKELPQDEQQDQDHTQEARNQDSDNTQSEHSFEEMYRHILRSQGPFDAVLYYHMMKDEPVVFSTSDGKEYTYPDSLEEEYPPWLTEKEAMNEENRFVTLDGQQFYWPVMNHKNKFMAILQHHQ

B1: Ebola virus VP30 C-terminal domain (amino acids 139–288) (domain or fragment)
chain: GPKITLLTLIKTAEHWARQDIRTIEDSKLRALLTLCAVMTRKFSKSQLSLLCETHLRREGLGQDQAEPVLEVYQRLHSDKGGSFEAALWQQWDRQSLIMFITAFLNIALQLPCESSAVVVSGLRTLVPQSDNEEASTNPGTCSWSDEGTP
B2: biotinylated EBOV NP peptide 560–617 (peptide)
chain: RMLTPINEEADPLDDADDETSSLPPLESDDEEQDRDGTSNRTPTVAPPAPVYRDHSEK
modifications: not fully specified (N-terminus); also: biotinylated (position not given here)

Assays:
[1] = molecular target: MARV NP 552-579-VP30 146–281 fusion protein (Marburg virus (MARV)) (UniProt P27588); assay: crystal structure
MARV VP30 CTD (146–281) = molecular target: T1, MARV VP30 CTD (146–281); assay: ITC; conditions: both partners purified
[2] = molecular target: T2, EBOV NP C-terminal portion (360–739); assay: ITC; conditions: both partners purified
[3] = molecular target: B1; assay: crystal structure; conditions: both partners purified
[4] = molecular target: B1; assay: BLI; conditions: both partners purified

Question: “MARV NP 552-579-VP30 146–281 fusion protein (from UniProt P27588;P35258)” was tested. Which stoichiometry N [1] did it give?
Answer: 2

Question: EQGVDLPPPPLYAQEKRQ [MARV NP peptide (552–569) fused to T4 lysozyme] was tested. Which Kd (MARV VP30 CTD (146–281)) did it give?
Answer: 14 µM

Question: For B1, which Kd [2] is on record?
Answer: 21.3 µM

Question: Does RTPTVAPPAPVYRDHSEKKELPQDEQQD [EBOV NP peptide (600–627), as the N-terminal part of the NP-VP30 fusion] bind [3]?
Answer: binds

Question: Does B2 bind [4]?
Answer: binds

Question: Does SSLPPLESDDEEQDRDGTSNRTPTVAPPAPVYRDHSEK (not fully specified (N-terminus); also: biotinylated (position not given here)) [biotinylated EBOV NP peptide 580–617] bind [4]?
Answer: binds
